Each block holds one substance with its values, some of them ahead of it. Ends that are not written are not given here. * marks the point of attachment. Biotin = O=C1N[C@H]2[C@H](CS[C@H]2CCCCC(=O)*)N1
Legend:
Assay in all cases: G' assay (10 uM PL peptide), results of TABLE 7 and TABLE 12
Assay type in all cases: binding
[1] = target: T1, PDZ protein (GST-PDZ fusion) (Homo sapiens, UniProt Q02410); conditions: PDZ Mint 1, PDZ Domain 1, 2
T1 construct: made in house; host or cells: E. coli (DH5alpha, BL21 or JM109)
T1 sequence (Q02410 1-837): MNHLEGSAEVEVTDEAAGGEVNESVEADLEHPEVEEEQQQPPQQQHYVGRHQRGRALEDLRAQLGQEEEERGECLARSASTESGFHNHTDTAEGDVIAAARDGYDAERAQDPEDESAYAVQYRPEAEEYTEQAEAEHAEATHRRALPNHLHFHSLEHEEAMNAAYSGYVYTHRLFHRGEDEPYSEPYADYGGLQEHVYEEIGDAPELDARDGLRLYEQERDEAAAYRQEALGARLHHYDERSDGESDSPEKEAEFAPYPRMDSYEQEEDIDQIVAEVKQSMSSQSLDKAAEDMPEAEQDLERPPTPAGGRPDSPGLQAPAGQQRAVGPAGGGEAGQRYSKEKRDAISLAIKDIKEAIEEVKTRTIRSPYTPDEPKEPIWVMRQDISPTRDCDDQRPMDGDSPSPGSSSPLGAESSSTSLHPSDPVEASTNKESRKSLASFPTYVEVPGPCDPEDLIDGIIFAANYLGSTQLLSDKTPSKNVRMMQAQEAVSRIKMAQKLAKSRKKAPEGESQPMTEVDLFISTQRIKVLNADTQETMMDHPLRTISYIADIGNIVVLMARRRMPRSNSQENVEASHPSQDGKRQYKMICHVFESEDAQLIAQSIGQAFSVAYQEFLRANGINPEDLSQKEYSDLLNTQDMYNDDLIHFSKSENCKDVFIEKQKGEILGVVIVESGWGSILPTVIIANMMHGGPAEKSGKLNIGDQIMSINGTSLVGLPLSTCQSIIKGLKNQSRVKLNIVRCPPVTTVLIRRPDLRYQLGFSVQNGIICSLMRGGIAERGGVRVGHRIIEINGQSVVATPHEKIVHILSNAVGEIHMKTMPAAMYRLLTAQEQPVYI
Source text: (§1) Each page of TABLE 7 and 12 includes seven columns. The columns in each table are numbered from left to right such that the left-most column in each table is column 1 and the right-most column in each table is column 7. Thus, the first column in each table is labeled “AVC ID”; this column simply lists an internal reference number used to refer to the carboxyl-terminal amino acids of the PL proteins listed in the second column. […] All PL peptides were biotinylated at the amino-terminus and the sequences of these PL peptides are presented in TABLE 8 (see end of specification).
(§2) This column provides the gene name for the PDZ portion of the GST-PDZ fusion that interacts with the PDZ-ligand to the left. For PDZ domain-containing proteins with multiple domains, the domain number is listed to the right of the PDZ (i.e., in column 5 labeled “PDZ Domain”), and indicates the PDZ domain number when numbered from the amino-terminus to the carboxy-terminus.
(§3) The third column labeled “Peptide Optimal Concentration” in the tables is a number reflective of the binding interaction between the PL protein and PDZ protein. […] The column labeled “Protein Optimal Concentration” refers to the protein concentration used to assay PL interaction (in ug/ml); a ‘0’ is indicative of 5 ug/ml protein concentration; any other value represents the concentration (in ug/ml) used to determine the dissociation constant for a given interaction.
(§4) Finally, the seventh column labeled “Classification” is another measure of the level of binding. In particular, it provides an absorbance value at 450 nm which indicates the amount of PL peptide bound to the PDZ protein. The following numerical values have the following meanings: ‘1’—A450 nm 0-1; ‘2’—A450 nm 1-2; ‘3’—A450 nm 2-3; ‘4’—A450 nm 3-4; ‘5’—A450 nm of 4 more than 2× repeated; ‘0’—A450 nm 0, i.e., not found to interact. Thus, higher numbers indicate stronger interactions.
(§5) For convenience, the assay conditions described in this section are referred to as the “G′ assay” and the “G″ assay,” with the specific conditions described in the preceding section on G assays being referred to as the “G^0 assay.” The “G′ assay” is identical to the “G^0 assay” except at step (2) the peptide concentration is 10 uM instead of 20 uM.

[2] = target: T2, PDZ protein (GST-PDZ fusion) (Homo sapiens, UniProt Q8NI35); conditions: PDZ INADL, PDZ Domain 8
T2 construct: made in house; host or cells: E. coli (DH5alpha, BL21 or JM109)
Source text: as §1, §2, §3, §4, §5

[3] = target: T3, PDZ protein (GST-PDZ fusion) (Homo sapiens, UniProt O75970)
T3 construct: made in house; host or cells: E. coli (DH5alpha, BL21 or JM109)
Source text: as §1, §2, §3, §4, §5

[4] = target: T4, PDZ protein (GST-PDZ fusion) (Homo sapiens, UniProt Q6P0Q8)
T4 construct: made in house; host or cells: E. coli (DH5alpha, BL21 or JM109)
Source text: as §1, §2, §3, §4, §5

[5] = target: T5, PDZ protein (GST-PDZ fusion) (Homo sapiens, UniProt Q5TCQ9)
T5 construct: made in house; host or cells: E. coli (DH5alpha, BL21 or JM109)
T5 sequence (Q5TCQ9 1-1481): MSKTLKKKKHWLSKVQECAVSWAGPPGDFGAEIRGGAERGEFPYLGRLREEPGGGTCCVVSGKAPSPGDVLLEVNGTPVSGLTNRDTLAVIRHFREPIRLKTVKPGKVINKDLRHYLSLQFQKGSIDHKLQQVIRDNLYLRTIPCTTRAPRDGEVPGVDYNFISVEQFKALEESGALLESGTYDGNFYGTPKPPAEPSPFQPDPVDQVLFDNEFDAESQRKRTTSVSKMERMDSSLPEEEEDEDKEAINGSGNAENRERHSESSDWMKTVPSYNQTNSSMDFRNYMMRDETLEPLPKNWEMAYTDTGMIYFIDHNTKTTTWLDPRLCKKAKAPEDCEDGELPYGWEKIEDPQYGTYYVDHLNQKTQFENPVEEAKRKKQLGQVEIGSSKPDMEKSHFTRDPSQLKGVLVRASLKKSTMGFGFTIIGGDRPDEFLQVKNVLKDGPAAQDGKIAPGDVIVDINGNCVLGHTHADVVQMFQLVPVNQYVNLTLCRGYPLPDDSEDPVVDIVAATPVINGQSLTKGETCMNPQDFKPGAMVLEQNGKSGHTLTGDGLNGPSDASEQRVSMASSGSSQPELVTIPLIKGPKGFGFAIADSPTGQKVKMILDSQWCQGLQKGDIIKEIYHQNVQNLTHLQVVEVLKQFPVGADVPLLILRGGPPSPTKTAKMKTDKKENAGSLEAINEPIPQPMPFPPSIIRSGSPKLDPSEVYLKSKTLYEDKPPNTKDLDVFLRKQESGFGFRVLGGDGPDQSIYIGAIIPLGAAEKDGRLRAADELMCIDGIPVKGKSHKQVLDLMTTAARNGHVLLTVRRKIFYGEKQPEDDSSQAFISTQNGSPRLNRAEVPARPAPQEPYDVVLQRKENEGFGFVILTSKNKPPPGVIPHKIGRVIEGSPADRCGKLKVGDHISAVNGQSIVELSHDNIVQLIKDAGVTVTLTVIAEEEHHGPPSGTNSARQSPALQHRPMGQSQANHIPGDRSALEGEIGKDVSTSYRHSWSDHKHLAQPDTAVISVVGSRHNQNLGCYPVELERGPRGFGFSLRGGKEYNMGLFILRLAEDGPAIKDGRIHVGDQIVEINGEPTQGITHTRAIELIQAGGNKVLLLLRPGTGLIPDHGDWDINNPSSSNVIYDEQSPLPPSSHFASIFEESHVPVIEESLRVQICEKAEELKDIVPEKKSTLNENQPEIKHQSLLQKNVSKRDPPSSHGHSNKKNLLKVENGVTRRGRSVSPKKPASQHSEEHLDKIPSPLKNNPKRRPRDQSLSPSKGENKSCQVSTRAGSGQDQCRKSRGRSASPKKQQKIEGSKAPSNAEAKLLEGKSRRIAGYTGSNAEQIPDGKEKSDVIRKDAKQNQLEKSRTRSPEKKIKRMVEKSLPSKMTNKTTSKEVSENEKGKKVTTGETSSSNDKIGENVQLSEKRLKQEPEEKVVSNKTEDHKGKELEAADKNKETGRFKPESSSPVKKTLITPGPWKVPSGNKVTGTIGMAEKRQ
Source text: as §1, §2, §3, §4, §5

[6] = test system: PDZ protein (GST-PDZ fusion); conditions: PDZ BAI-1, PDZ Domain 3
Source text: as §1, §2, §3, §4, §5

[7] = target: T6, PDZ protein (GST-PDZ fusion) (Homo sapiens, UniProt Q12923)
T6 construct: made in house; host or cells: E. coli (DH5alpha, BL21 or JM109)
Source text: as §1, §2, §3, §4, §5

[8] = target: T7, PDZ protein (GST-PDZ fusion) (Homo sapiens, UniProt Q14160); conditions: PDZ KIAA0147, PDZ Domain 1
T7 construct: made in house; host or cells: E. coli (DH5alpha, BL21 or JM109)
Source text: as §1, §2, §3, §4, §5

T3 sequence (O75970 whole entry, the tested form may be a part): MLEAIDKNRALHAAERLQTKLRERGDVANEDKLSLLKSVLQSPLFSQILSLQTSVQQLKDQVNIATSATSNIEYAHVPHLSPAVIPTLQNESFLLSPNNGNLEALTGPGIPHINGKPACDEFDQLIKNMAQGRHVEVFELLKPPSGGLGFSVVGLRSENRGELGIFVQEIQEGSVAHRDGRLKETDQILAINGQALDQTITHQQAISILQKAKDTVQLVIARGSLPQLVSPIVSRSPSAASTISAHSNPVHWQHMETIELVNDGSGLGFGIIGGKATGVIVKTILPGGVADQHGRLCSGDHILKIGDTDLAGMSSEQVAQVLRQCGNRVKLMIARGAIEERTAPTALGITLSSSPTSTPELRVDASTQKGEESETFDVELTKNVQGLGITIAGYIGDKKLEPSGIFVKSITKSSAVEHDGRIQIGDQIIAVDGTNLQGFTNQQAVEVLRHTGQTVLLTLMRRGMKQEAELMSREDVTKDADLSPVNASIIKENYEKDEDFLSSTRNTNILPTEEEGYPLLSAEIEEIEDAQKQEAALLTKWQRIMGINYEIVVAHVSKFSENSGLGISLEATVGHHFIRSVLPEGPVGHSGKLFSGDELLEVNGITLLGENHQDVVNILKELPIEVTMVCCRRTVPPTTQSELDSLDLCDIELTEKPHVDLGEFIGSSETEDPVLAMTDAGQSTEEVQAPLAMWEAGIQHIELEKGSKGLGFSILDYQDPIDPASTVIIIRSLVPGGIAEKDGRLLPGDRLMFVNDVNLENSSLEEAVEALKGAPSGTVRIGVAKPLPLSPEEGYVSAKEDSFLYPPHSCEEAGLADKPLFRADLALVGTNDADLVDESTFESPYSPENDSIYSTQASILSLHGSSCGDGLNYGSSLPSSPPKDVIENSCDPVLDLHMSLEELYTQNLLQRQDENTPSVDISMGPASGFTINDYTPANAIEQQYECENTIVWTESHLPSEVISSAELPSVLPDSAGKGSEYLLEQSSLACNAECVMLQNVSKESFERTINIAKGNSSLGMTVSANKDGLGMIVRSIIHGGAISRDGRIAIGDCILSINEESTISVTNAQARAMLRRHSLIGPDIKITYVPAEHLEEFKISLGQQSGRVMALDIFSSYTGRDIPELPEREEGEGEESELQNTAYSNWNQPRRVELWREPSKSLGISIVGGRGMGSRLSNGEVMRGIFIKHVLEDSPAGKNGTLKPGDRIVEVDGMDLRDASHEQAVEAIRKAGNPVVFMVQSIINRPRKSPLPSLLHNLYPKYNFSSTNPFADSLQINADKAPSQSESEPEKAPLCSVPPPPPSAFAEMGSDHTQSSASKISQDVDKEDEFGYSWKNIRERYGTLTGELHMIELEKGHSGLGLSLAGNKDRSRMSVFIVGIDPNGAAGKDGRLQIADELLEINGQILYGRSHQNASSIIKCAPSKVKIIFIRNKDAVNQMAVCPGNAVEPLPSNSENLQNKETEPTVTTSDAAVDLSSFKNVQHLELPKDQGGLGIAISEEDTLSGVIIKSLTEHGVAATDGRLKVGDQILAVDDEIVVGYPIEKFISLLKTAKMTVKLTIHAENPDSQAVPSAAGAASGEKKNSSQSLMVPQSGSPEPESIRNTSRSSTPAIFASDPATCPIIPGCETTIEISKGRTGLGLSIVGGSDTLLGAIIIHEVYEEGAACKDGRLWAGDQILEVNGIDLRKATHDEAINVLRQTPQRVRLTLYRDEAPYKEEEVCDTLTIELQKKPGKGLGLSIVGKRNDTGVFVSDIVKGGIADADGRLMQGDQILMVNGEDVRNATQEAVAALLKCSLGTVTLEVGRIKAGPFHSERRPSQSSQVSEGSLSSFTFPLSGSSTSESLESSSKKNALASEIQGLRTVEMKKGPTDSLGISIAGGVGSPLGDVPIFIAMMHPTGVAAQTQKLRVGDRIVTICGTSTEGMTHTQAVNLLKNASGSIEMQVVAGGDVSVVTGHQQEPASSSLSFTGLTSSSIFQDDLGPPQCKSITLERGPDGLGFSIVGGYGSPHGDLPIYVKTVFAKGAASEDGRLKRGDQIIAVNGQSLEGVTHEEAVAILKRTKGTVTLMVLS
T4 sequence (Q6P0Q8 whole entry, the tested form may be a part): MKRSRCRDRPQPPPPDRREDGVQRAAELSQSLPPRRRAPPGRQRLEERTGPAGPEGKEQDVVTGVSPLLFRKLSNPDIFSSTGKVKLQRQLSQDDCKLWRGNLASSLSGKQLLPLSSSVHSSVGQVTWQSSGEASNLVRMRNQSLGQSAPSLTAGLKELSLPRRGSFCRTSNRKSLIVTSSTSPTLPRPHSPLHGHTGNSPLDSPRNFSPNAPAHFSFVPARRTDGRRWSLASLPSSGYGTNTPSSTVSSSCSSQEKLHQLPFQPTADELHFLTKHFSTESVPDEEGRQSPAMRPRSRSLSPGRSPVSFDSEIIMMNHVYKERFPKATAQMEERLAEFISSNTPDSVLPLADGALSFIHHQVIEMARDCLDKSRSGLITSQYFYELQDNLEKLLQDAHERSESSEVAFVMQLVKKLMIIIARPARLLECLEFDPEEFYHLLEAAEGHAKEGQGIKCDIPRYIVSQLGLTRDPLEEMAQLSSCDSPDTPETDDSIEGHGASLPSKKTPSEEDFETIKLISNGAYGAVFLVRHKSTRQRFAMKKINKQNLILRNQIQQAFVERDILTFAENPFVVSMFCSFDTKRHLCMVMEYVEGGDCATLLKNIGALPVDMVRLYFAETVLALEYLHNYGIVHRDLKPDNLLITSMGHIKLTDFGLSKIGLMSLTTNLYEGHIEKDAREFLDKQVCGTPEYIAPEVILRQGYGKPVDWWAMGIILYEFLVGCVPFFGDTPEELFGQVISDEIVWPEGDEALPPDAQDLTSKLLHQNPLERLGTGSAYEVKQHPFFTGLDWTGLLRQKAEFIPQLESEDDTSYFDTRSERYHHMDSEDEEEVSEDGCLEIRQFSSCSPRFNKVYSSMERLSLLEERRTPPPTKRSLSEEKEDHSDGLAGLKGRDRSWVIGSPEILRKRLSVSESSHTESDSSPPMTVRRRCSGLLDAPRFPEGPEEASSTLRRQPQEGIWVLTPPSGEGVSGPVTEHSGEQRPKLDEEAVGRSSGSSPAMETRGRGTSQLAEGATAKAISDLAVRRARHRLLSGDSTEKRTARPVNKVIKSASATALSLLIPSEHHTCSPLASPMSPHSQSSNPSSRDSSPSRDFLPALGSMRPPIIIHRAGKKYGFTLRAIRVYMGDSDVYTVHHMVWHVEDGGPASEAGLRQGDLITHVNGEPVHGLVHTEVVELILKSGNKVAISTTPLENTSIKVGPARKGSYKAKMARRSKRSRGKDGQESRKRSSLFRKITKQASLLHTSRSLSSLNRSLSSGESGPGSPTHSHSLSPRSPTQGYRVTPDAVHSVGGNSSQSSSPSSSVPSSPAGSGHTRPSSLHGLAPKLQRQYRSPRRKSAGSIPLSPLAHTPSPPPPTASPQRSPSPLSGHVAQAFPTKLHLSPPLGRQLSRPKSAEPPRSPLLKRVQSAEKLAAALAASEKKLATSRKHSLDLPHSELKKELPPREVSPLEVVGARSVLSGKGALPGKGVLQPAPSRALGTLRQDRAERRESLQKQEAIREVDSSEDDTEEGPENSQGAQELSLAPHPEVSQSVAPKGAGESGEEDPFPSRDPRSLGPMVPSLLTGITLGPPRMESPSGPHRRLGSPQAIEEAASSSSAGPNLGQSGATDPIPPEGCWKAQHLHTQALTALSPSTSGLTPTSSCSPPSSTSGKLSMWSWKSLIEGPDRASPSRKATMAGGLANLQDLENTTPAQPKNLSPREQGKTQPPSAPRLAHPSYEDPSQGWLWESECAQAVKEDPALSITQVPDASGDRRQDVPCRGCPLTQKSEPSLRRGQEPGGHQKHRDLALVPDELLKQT

Substance: DGGARTEDEVQSYPSKHDYV (Biotin-DGGARTEDEVQSYPSKHDYV) [claudin 18]
Classification [1]: 1 (A450 nm 0-1)

Substance: ENLELPVNPSSVVSERISSV (Biotin-ENLELPVNPSSVVSERISSV) [serotonin receptor 5-HT-2C]
Classification [2]: 1 (A450 nm 0-1)
Classification ([3]; PDZ MUPP-1, PDZ Domain 10): 1 (A450 nm 0-1)

Substance: IVFIHSFLSAKVTRLGLLA (Biotin-IVFIIHSFLSAKVTRLGLLA) [alpha-1-syntrophin]
Classification ([4]; PDZ KIAA0807(S), PDZ Domain 1): 1 (A450 nm 0-1)

Substance: PGQPPKVKSEFNSYSLTGYV (Biotin-PGQPPKVKSEFNSYSLTGYV) [claudin 2]
Classification ([5]; PDZ KIAA1634, PDZ Domain 1): 1 (A450 nm 0-1)
Classification ([4]; PDZ KIAA807): 1 (A450 nm 0-1)
Classification [6]: 1 (A450 nm 0-1)
Classification [1]: 2 (A450 nm 1-2)

Substance: TALRIKKTLAKMVESQDVKI (Biotin-TALRIKKTLAKMVESQDVKI) [bone morphogenetic protein receptor]
Classification ([3]; PDZ MUPP-1, PDZ Domain 3): 1 (A450 nm 0-1)
Classification ([3]; PDZ MUPP-1, PDZ Domain 7): 1 (A450 nm 0-1)
Classification ([3]; PDZ MUPP-1, PDZ Domain 9): 1 (A450 nm 0-1)
Classification ([4]; PDZ KIAA0807(S), PDZ Domain 1): 1 (A450 nm 0-1)

Results, then the substance that gave them:

Classification [1]: 4 (A450 nm 3-4)
Substance: KAGYRAPRSYPKSNSSKEYV (Biotin-KAGYRAPRSYPKSNSSKEYV) [claudin 7]

Classification ([7]; PDZ PTPL-1, PDZ Domain 4): 1 (A450 nm 0-1)
Substance: C5AR_HUMAN (Biotin-ESKSFTRSTVDTMAQKTQAV)

Classification ([5]; PDZ KIAA1634, PDZ Domain 2): 2 (A450 nm 1-2)
Classification ([7]; PDZ PTPL-1, PDZ Domain 2): 4 (A450 nm 3-4)
Classification [8]: 1 (A450 nm 0-1)
Substance: PYQSQGFSTEEDEDEQVSAV (Biotin-PYQSQGFSTEEDEDEQVSAV) [RA-GEF (ras/rap1A-assoc-GEF)]

Reference: patent US20050282743A1, “Molecular interactions in cells” (Arbor Vita Corporation, priority 2001, published 2005)
